Here are results for 13 molecules from US20230235004A1 (published 2023).

Sequences and labels used below:
B1: MAdCAM antibody Table 1 clone 33 (scFv)
scFv: QVQLVQSGAEVKKPGASVKVSCKASGYTFTSYGISWVRQAPGQGLEWMGWMHPKSGDTGLTQKFQGRVTMTRDTSTSTVYMELSSLRSEDTAVYYCARDTPYYYYGMDVWGQGTTVTVSSGGGGSGGGGSGGGGSGGGGSDIQMTQSPSSLSASVGDRVTITCRASQSISSWLAWYQQKPGKAPKLLIYAASSLQSGVPSRFSGSGSGTDFTLTISSLQPEDFATYYCQQSYSVPITFGQGTKVEIK
B2: MAdCAM antibody Table 1 clone 39 (scFv)
scFv: QVQLVQSGAEVKKPGASVKVSCKASGYTFTSYYMHWVRQAPGQGLEWMGWMNPNSGNTGYAQKFQGRVTMTRDTSTSTVYMELSSLRSEDTAVYYCARDLGYYDSSGYFGAFDIWGQGTTVTVSSGGGGSGGGGSGGGGSGGGGSDIQMTQSPSSLSASVGDRVTITCQSSEDISSSLNWYQQKPGKAPKLLIYAASSLQIGVPSRFSGSGSGTDFTLTISSLQPEDFATYYCQQTYSTPYTFGQGTKVEIK
B3: MAdCAM antibody Table 1 clone 35 (scFv)
scFv: EVQLLESGGGLVQPGGSLRLSCAASGFSFSSYTMNWVRQAPGKGLEWVSFITSSSRTIYYADSVKGRFTISRDNSKNTLYLQMNSLRAEDTAVYYCARDRRGDYGDSWYFDLWGRGTLVTVSSGGGGSGGGGSGGGGSGGGGSEIVMTQSPATLSVSPGERATLSCRASQSVRNYLAWYQQKPGQAPRLLIYGASTRATGIPARFSGSGSGTEFTLTISSLQSEDFAVYYCQQYGSSPLTFGGGTKVEIK
B4: MAdCAM antibody Table 1 clone 31 (scFv)
scFv: QVQLVQSGAEVKKPGASVKVSCKASGYTFTSYYMHWVRQAPGQGLEWMGIINPSGGSTSYAQKFQGRVTMTRDTSTSTVYMELSSLRSEDTAVYYCARDTGYSYGRYYYYGMDVWGQGTLVTVSSGGGGSGGGGSGGGGSGGGGSDIQMTQSPSSLSASVGDRVTITCRASQSIGRWLAWYQQKPGKAPKLLIYDASNLQSGVPSRFSGSGSGTDFTLTISSLQPEDFATYYCQQSYSIPITFGQGTKVEIK
B5: MAdCAM antibody Table 1 clone 36 (scFv)
scFv: B4 scFv with S31G, Y32H, L120T, Q245G
B6: MAdCAM antibody Table 1 clone 32 (scFv)
scFv: QVQLVQSGAEVKKPGASVKVSCKASGYTLTDYYMHWVRQAPGQGLEWMGIINPSGGSTSYAQKFQGRVTMTRDTSTSTVYMELSSLRSEDTAVYYCAREEYSSSSGYFDYWGQGTLVTVSSGGGGSGGGGSGGGGSGGGGSDIQMTQSPSSLSASVGDRVTITCRASQGISSWLAWYQQKPGKAPKLLIYAASSLQSGVPSRFSGSGSGTDFTLTISSLQPEDFATYYCQQSYSTPLTFGQGTKVEIK
B7: MAdCAM antibody Table 1 clone 29 (scFv)
scFv: QVQLVQSGAEVKKPGASVKVSCKASGYTFTSYYMHWVRQAPGQGLEWMAWMNPNSGNTGYAQKFQGRVTMTRDTSTSTVYMELSSLRSEDTAVYYCARDYDFWSGSLGYWGQGTLVTVSSGGGGSGGGGSGGGGSGGGGSDIQMTQSPSSLSASVGDRVTITCRASQGISNYLAWYQQKPGKAPKLLIYAASSLQSGVPSRFSGSGSGTDFTLTISSLQPEDFATYYCQQSYSTPWTFGQGTKVEIK
B8: MAdCAM antibody Table 1 clone 38 (scFv)
scFv: EVQLLESGGGLVQPGGSLRLSCAASGFTFGSYSMSWVRQAPGKGLEWVSAIGTGGGTYYADSVKGRFTISRDNSKNTLYLQMNSLRAEDTAVYYCAKGTPYYYYYGMDVWGQGTMVTVSSGGGGSGGGGSGGGGSGGGGSDIQMTQSPSSLSASVGDRVTITCRASQPLSNWLAWYQQKPGKAPKLLIYAASSLQSGVPSRFSGSGSGTDFTLTISSLQPEDFATYYCQQAISFPLTFGGGTKVEIK
B9: MAdCAM antibody Table 1 clone 40 (scFv)
scFv: QVQLVQSGAEVKKPGASVKVSCKASGYTFTSYGISWVRQAPGQGLEWMGIINPRGGSTIFAQKFQGRVTMTRDTSTSTVYMELSSLRSEDTAVYYCARGTRSSGWYGWFDPWGQGTLVTVSSGGGGSGGGGSGGGGSGGGGSDIQMTQSPSSLSASVGDRVTITCRASQGIGNWLAWYQQKPGKAPKLLIYAASNLETGVPSRFSGSGSGTDFTLTISSLQPEDFATYYCQQIHSYPLTFGGGTKVEIK
B10: MAdCAM antibody Table 1 clone 37 (scFv)
scFv: QVQLVQSGAEVKKPGASVKVSCKASGYTFSKHFVHWVRQAPGQGLEWMGWMNPNSGNSGYAQKFQGRVTMTRDTSTSTVYMELSSLRSEDTAVYYCARGEGGYYYYGMDVWGQGTLVTVSSGGGGSGGGGSGGGGSGGGGSDIQMTQSPSSLSASVGDRVTITCRASQSISSWLAWYQQKPGKAPKLLIYAASTLQSGVPSRFSGSGSGTDFTLTISSLQPEDFATYYCQQSYSTPWTFGQGTKVEIK
B11: MAdCAM antibody Table 1 clone 27 (scFv)
scFv: QVQLVQSGAEVKKPGASVKVSCKASGYTFTGYYIHWVRQAPGQGLEWMGWMNPNSGNTGYAQKFQGRVTMTRDTSTSTVYMELSSLRSEDTAVYYCARDPGFLGYCSGGSCYDGWFDPWGQGTLVTVSSGGGGSGGGGSGGGGSGGGGSDIQMTQSPSSLSASVGDRVTITCRASQSISSYLHWYQQKPGKAPKLLIYAASSLQSGVPSRFSGSGSGTDFTLTISSLQPEDFATYYCQQSYTAPYTFGQGTKLEIK
B12: MAdCAM antibody Table 1 clone 26 (scFv)
scFv: QVQLVQSGAEVKKPGASVKVSCKASGYTLTTWYMYWVRQAPGQGLEWMGWINPNRGATNYAQKFQGRVTMTRDTSTSTVYMELSSLRSEDTAVYYCAKGDLWGAMDVWGQGTTVTVSSGGGGSGGGGSGGGGSGGGGSDIQMTQSPSSLSASVGDRVTITCRASDNIGSWLAWYQQKPGKAPKLLIYAASSLQSGVPSRFSGSGSGTDFTLTISSLQPEDFATYYCQQGYSTPPTFGQGTKVEIK
B13: MAdCAM antibody Table 1 clone 28 (scFv)
scFv: QVQLVQSGAEVKKPGASVKVSCKASGYTFTDYFLHWVRQAPGQGLEWMGWMNPTSGNTGYAQKFQGRVTMTRDTSTSTVYMELSSLRSEDTAVYYCAREGEGSGFDYWGQGTLVTVSSGGGGSGGGGSGGGGSGGGGSDIQMTQSPSSLSASVGDRVTITCRASQGINSWLAWYQQKPGKAPKLLIYDASNLETGVPSRFSGSGSGTDFTLTISSLQPEDFATYYCQQSYSTPLTFGGGTKVEIK

Numbering of substitutions follows the chain as printed.

One test has as its target T1, human MAdCAM expressed on cells (human, UniProt Q13477 19-382).
T1 construct: whole, on cells
T1 sequence (looked up): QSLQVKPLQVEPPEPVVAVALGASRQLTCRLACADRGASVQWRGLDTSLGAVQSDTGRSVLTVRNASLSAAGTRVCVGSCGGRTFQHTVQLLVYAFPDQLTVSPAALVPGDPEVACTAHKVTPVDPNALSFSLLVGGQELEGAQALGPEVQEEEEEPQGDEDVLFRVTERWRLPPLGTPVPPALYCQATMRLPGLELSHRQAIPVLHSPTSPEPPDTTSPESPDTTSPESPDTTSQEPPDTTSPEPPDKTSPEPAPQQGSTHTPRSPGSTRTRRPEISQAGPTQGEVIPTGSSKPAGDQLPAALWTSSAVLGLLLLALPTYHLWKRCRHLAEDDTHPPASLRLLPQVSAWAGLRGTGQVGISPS
Nature of the test: cell binding.
As for B1, the binding result is on record as “binds”.

Consider B2, for which the binding result is “binds”.

In the case of B3, the binding result is recorded as “binds”.

As to B4, the binding result is “binds”.

B5: the binding result is recorded as “binds”.

With B6, the binding result is “binds”.

Turning to B7, the binding result was “binds”.

Consider B8, for which the binding result is given as “binds”.

In the case of B9, the binding result is listed as “binds”.

With B10, the binding result was “binds”.

As for B11, the binding result is listed as “binds”.

Regarding B12, the binding result was “binds”.

With B13, the binding result is recorded as “binds”.

In the next test the target is T2, mouse MAdCAM expressed on cells (mouse, UniProt Q61826 22-405).
T2 construct: whole, on cells
T2 sequence (looked up): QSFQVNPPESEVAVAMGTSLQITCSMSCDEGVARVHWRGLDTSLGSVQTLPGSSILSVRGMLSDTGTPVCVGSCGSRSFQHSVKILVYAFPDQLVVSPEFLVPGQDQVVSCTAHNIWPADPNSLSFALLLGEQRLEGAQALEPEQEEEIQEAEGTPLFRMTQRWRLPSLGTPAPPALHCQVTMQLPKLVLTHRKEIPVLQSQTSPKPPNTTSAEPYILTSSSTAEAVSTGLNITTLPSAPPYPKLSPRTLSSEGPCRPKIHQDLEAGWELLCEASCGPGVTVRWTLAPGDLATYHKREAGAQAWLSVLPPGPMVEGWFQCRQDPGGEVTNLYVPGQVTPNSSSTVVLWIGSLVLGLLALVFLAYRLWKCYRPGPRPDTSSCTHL
As to the kind of experiment: cell binding.
On to B1, for which the binding result is “no binding”.

For the molecule B2, the binding result was “no binding”.

Take B3: the binding result is reported as “no binding”.

With B4, the binding result is recorded as “no binding”.

As to B5, the binding result is “no binding”.

As to B6, the binding result is given as “no binding”.

Regarding B7, the binding result is “no binding”.

On to B8, for which the binding result is reported as “no binding”.

Take B9: the binding result was “no binding”.

Turning to B10, the binding result is listed as “no binding”.

With B11, the binding result was “no binding”.

For B12, the binding result is listed as “no binding”.

Turning to B13, the binding result is recorded as “no binding”.
